Substrate: O=C[C@H](O)COP(=O)(O)O
Experiment: purified protein
Type: biochemical, Cryptosporidium parvum
Conditions: 150 μM NAD, 50 mM triethanolamine, 50 mM Na2HPO4, 0.2 mM EDTA, pH 8.8, D-G3H 1.47-5.88 mM supplied as DL-G3H

B1: CpGAPDH (Cryptosporidium parvum glyceraldehyde 3-phosphate dehydrogenase) (Cryptosporidium parvum) (protein)
chain: MTATLGINGFGRIGRLVLRACMERNDITVVAINDPFMDVEYMAYLLKYDSVHGNFNGTVEVSGKDLCINGKVVKVFQAKDPAEIPWGASGAQIVCESTGVFTTEEKASLHLKGGAKKVIISAPPKDNVPMYVMGVNNTEYDPSKFNVISNASCTTNCLAPLAKIINDKFGIVEGLMTTVHSLTANQLTVDGPSKGGKDWRAGRCAGNNIIPASTGAAKAVGKVIPALNGKLTGMAIRVPTPDVSVVDLTCKLAKPASIEEIYQAVKEASNGPMKGIMGYTSDDVVSTDFIGCKYSSIFDKNACIALNDSFVKLISWYDNESGYSNRLVDLAVYVASRGL
notes: recombinant, N-terminal hexa-histidine tag kept, expressed in E. coli; homotetramer
  Km: 762.7 ± 43.0 µM
